Numbering of substitutions follows the chain as printed.
B1: F26G7 (antibody, V domains shown)
VH: VELLESGTVLARPGASVKMSCEASGYTFTTYWMHWIKQRPGQGLEWIGAIYPGNSDTTYNQKFKGKAKLTAVTSTSTAYMELSSLTNEDSAVYYCTREGIPQLLRTMDYWGQGTSVTVSS
VL: ELVMTQSPSSLSASLGERVSLTCRASQEISGYLSWLQQKPDGTIKRLIYAASTLDSGVPKRFSGSRSGSDYSLTISSLESEDFADYYCLQYISYPWTFGGGTKLEIKR
B2: F26G3 (antibody, V domains shown)
VH: EVRLQQSGPELVKPGASVKISCKTSGYTFTEYTMHWVKQSHGKNLEWIGGINPNNGGTTYNQKFKGKATLTVDKSSNTAYMELRSLTSEDSAVYYCSRGDYGTSYGYFDVWGAGTTVTVSS
VL: DILMTQSPTSFAVSLGQRATISCRTSQSVSTSSYSYMHWYQQKPGQPPKLLIKYASNLESGVPARFSGSGSGSDFTLNIHPVEEGDTATYYCQHSWEIPCAFGGGTKLEIKR
B3: F26G9 (antibody, V domains shown)
VH: VQLLESGTVLARPGASVKMSCKASGYSFTSYWMHWVKQRPGQGLEWIGAIYPGNSDTSYNQKFKGKAKLTAVTSASTAYMELSSLTNEDSAVYYCTRSVYYGYGYFDVWGAGTTVTVSS
VL: DILMTQSHKCMSTSVGDRVSITCKASQDVSTAVVWYQQKPGQFPKLLIYWASTRHTGVPDRFTGSGSGTDYTLTISSVQAEDLALYYCQQHYTTPYTFGGGTKLEIKR
B4: F26G10 (antibody, V domains shown)
VH: EVQLEESGTVLARPGASVKMSCKASGYSFTSYWMHWVKQRPGQGLDWIGAIYPENSDTSYNQKFKGKAKLTAVTSASTAYMEHSSLTNEDSAVYYCTRSVYYGYGYFDVWGAGTTVTVSS
VL: B3 VL with C10F, V34A, F43S, T93S

Target: SARS-HCoV antigen(s) of unknown identity (purified whole virus, infected Vero cell lysate or infected Vero cells)
Experiment: ELISA, native gradient purified virus coated at 32 ng/well

Binder	ELISA OD 405 nm, Viral Lysate (native) [OD 405 nm]
B1	1.92
B2	1.25
B3	1.34
B4	1.26

Target: SARS-HCoV antigen(s) of unknown identity (purified whole virus, infected Vero cell lysate or infected Vero cells)
Experiment: ELISA, virus heated 100 C 10 min, coated at 32 ng/well

Binder	ELISA OD 405 nm, Denatured Lysate [OD 405 nm]
B1	0.382
B2	0.276
B3	0.278
B4	0.29

Target: SARS-HCoV antigen(s) of unknown identity (purified whole virus, infected Vero cell lysate or infected Vero cells)
Experiment: ELISA, OD on native virus against OD on heat-denatured virus

Binder	O.D. Reduction, Fold [fold]	O.D. Reduction, Percent [%]
B1	5	80
B2	4.5	78
B3	4.8	79
B4	4.3	77

Source: patent US20080081047A1
